Measured values published in the supplement of paper PMC9170038.

Test system: MS2 coat protein
Assay: apparent KD of MS2 coat protein; designed switch direction (-1 OFF switch, 1 ON switch): 1; higher = weaker reporter binding
Outline: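 Designed RNA switches were transcribed on Illumina chips by stalled E. coli RNA polymerase and titrated with SNAP-549-labelled MS2 coat protein from 0.7 or 1.5 nM, doubling to 3 µM. Step length ran from 0.8–1.5 h at the lowest concentration to 10–20 min at the highest. The apparent KD is the median over clusters for each design, from curve-fitted normalised cluster fluorescence.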

[1] = Eterna round: R95, input ligand: FMN 200 uM
[2] = Eterna round: R95, input ligand: microRNA oligo, concentration not stated
[3] = Eterna round: R95, input ligand: none
[4] = input ligand: microRNA oligo, concentration not stated

Sequence	apparent KD of MS2 coat protein [1] [µM]	apparent KD of MS2 coat protein [2] [µM]	apparent KD of MS2 coat protein [3] [µM]	apparent KD of MS2 coat protein [4] [µM]	apparent KD of MS2 coat protein (input ligand: FMN 200 uM) [µM]	apparent KD of MS2 coat protein (input ligand: none) [µM]
GUAUAACAUGAGGAUCACCCAUGUCAACAAAGUCGAGGAUAUGGGCAGAGAGGAGAAGAACCAGAAGGCGAAUAUG [Mat - Same State 1 - Mod of UCT - D37] (puzzle: Same State 1)	0.0778	0.0592	0.122			
GUCCGGCUGCCACAGGAUAUACGUGGAUCGACAUGAGGAUCACCCAUGUAUAUCCUAAUAAUUGCGUAGAAGGGUGGUCAGCCGG [Dionbe] (Eterna round: R96, puzzle: Same State 2)				0.507		
GUCCGGCUGCCACAGGAUAUACGUGGAUCGACAUGAGGAUCACCCAUGUAUAUCCUAAUAAUUGCGUAGAAGGGUGGUCAGCCGG [Dionbe] (puzzle: Same State 2)	0.0783	0.54	1.18			
GUGCGGCUGCCACAGGAUAUACGUGGAUCGACAUGAGGAUCACCCAUGUAUAUCCUAAUAAUUGCGUAGAAGGGUGGUCAGCCAG [Iserinqu] (puzzle: Same State 2)	0.09	0.332	0.469			
GUGCUCAUGUAAGGAUAUGCAGCCGUUUCGGCUGCAGAAGGUACUAUAAUACAUGAGGAUCACCCAUGUCUCUAUAAUUUGGUG [salish99_SSNG1_r04_903] (Eterna round: R96, puzzle: Same State NG 1)				0.0765		
GUGCUCGUGUAAGGAUAUGCAGCCGUUUCGGCUGCAGAAGGUACUAUAAUACAUGAGGAUCACCCAUGUCUCUAUAGUUUGGUG [salish99_SSNG1_r04_905] (Eterna round: R96, puzzle: Same State NG 1)				0.0223		
GUGGAGGGUUGAGGAUAUUGAAUACAUAUGUUUAACAUGAGGAUCACCCAUGUGGGUUGCGGUAUCGAGAAGGUAAAUUGCUGG [salish99_SSNG2_r04_037] (Eterna round: R96, puzzle: Same State NG 2)				0.0721		
GUGGCCCAGGCACAGGAUAUGUUUCUCGUAACAUGAGGAUCACCCAUGUGCCUAUGAGAUUUUAUGCAGAAGGGUGCACGCCACG [JL Atiinbe mod 01] (puzzle: Same State 2)	0.0185	0.056	0.123			
GUGGUCAAUCAAGGAUAUGGAGCCUUAUUGGCUCCAGAAGGUGGGACAUGAGGAUCACCCAUGUGGCAGUGGUCAAAUGACCAC [Fiskers NG1ss - 34] (Eterna round: R96, puzzle: Same State NG 1)				0.172	0.149	0.164
GUGGUCAGACAUGAGGAUCACCCAUGUGGAAUAAAUAACAGACAGGAUAUGUAAUAUAAAAUAUAACAGAAGGGUCGAUUGGUG (Eterna round: R96, puzzle: Same State NG 3)				0.0647	0.0796	0.0939
GUGGUCAGACAUGAGGAUCACCCAUGUGGAAUAAAUAACGGACAGGAUAUAUAAUAUAGGAUAUAGUAGAAGGGUUGAUUGGUG (Eterna round: R96, puzzle: Same State NG 3)				0.0577	0.0858	0.0602
GUGGUCAGACAUGAGGAUCACCCAUGUGGAAUAAAUAAGGAAUAGGAUAUCGAAUAUAGGAUAUACGAGAAGGGUUGGUUGGUG (Eterna round: R96, puzzle: Same State NG 3)				0.08		
GUGGUCAGACAUGAGGAUCACCCAUGUGGAAUAAAUAAGGGAUAGGAUAUGGAAUAUAGGAUAUACCAGAAGGGUUGGUUGGUG (Eterna round: R96, puzzle: Same State NG 3)				0.0876	0.107	0.0951
GUGGUGUAGAUACAGGAUAUGUUGCUCGUAACAUGAGGAUCACCCAUGUAUCUAUGAGAAUAAAUGCAGAAGGGUGCACACCACU [Mat - Same State 2 - Mod of UCT - D74] (Eterna round: R96, puzzle: Same State 2)				0.197	0.0261	0.489
